Laboratory results reported in doi:10.1101/2022.04.09.487726 (bioRxiv, 2022).

Target: the molecule itself
Test: cryo-EM structure

B1: Redβ177-His6 (C-terminally truncated Redβ annealase of bacteriophage λ, residues 1-177) (domain or fragment, bacteriophage lambda (phage λ), UniProt P03698 1-177, looked up)
chain: MSTALATLAGKLAERVGMDSVDPQELITTLRQTAFKGDASDAQFIALLIVANQYGLNPWTKEIYAFPDKQNGIVPVVGVDGWSRIINENQQFDGMDFEQDNESCTCRIYRKDRNHPICVTEWMDECRREPFKTREGREITGPWQSHPKRMLRHKAMIQCARLAFGFAGIYDKDEAER
binding result: binds
